{
  "source": "the DeepSol protein solubility set",
  "data": [
    {"assay": "soluble on expression in E. coli; label from the status in PepcDB or PDB records", "values": [
      {"sequence": "MGSDKIHHHHHHMEVLRTENLKSYYILDIFGKKRVVKAVDDVNISIMENEIYGIAGESGCGKSTLLRALFAAIEPPQRIVGGKVLYRENGKEVDVYSLSDEERRRLRWSFISYVPQGSMSVLNPVVKIKETFKDFIESHTTGKTKEEAYEMAKEHIKELGLPIEILNAYPHQLSGGMRQRVTIALATVLSPKVIIADEPTTALDVVTQRGVVQLLKEIQSSRQNTIILVTHDMGVHANVTDRIAIMYAGKIIEEGKTEEIFENPMHPYTKYLIYSLPKFGDKGRRESAPGSPPSLADLPPGCSFHPRCPHAFDRCKKEVPPLKEYLPGHRVACWLVEEGKNAAS", "soluble on expression in E. coli": "not soluble"},
      {"sequence": "MGSDKIHHHHHHMKRFTLWNSYVAITESKEFVDWNKTKIIGSFKCPAFSYRSSTQIKADPFLFEYNNAIYLFYEEKYKNGKGYIVCTWTSDLKNWSQPVVVLKEPFHLSFPYVFKINDKIYMLPESNESNELRLYECVDFPYKWKLNKIIFDNGKYVDSSIICKGDIYYLFTTHKTENSFYHELYYCNDLLSDKWIKHPQSPISNNPKFARNGGSVFSHNNNLFRPAQDCSVSYGNNLSIFNVTHLSIDKYEETLVATNFFPKYKFKHGGHHFSHIEYKGQNIIAFDKKSREYAITPLFSSLYALICRLMKITSHK", "soluble on expression in E. coli": "not soluble"},
      {"sequence": "MGSDKIHHHHHHMTQLKTLPIYDPTLFEGAAEVYAQYRTKYPPAVFDKLTEIFNLNGQGRLLDLGTGPGLIAIPLSTKFQEVVAIDPDPEMLKEAQRQAATAGANNITWLEQGAELINPSLGVFKLATIGRAFHWMERQLVLERLYELLADDGAIALLNTGDDPWKSPLPWKQAAIGVVKKWLGEERRTGQRGQGIRKPVDPPHEVVIANSKFARQEVHEVTFEKSWTVSSYLGYLYTTAFSLKIFYGDKAEEFEADIKDALLAVEPSGHFTEELKATIQVVWKH", "soluble on expression in E. coli": "not soluble"},
      {"sequence": "MSSDVRFTDFKSDKQPTWCPGCGDFGTMNGMMKALAETGNDPDNTFIVAGIGCSGKIGTYMHSYALHGVHGRALPVGIGVKMANPDLEVMVSGGDGDGYSIGAGHFIHAVRRNVDMSYVVMDNRIYGLTKGQASPTSREDFETSTSPDGPNQPPVNPKALALASGATFIAQSFSSNAQRHAEIVQKAVEHDGFGFVNVYSPCVTFNDVDTYDYFRDAIVDLDETDHDPADRDQAKDKILESEKEYMGVLYQDEDSVPFEEREGVEGSMAEIPDGAPEGAMDLVREFY", "soluble on expression in E. coli": "not soluble"},
      {"sequence": "SDLPDSASRVFCGRILSMVNTDDVNAIILAQKNMLDRFEKTNEMLLNFNNLSSARLQQMSERFLHHTRTLVEMKRDLDSIFRRIRTLKGKLARQHPEAFSHIPEASFLEEEDEDPIPPSTTTTIATSEQSTGSCDTSPDTVSPSLSPGFEDLSHVQAGSPAINGRSQTDDEEMTGE", "soluble on expression in E. coli": "soluble"},
      {"sequence": "MSIEIKTNSVEPIRHTYGHIARRFGDKPATRYQEASYDIEAKTNFHYRPQWDSEHTLNDPTRTAIRMEDWCAVSDPRQFYYGAYVGNRAKMQESAETSFGFCEKRNLLTRLSEETQKQLLRLLVPLRHVELGANMNNAKIAGDATATTVSQMHIYTGMDRLGIGQYLSRIALMIDGSTGAALDESKAYWMDDEMWQPMRKLVEDTLVVDDWFELTLVQNILIDGMMYPLVYDKMDQWFESQGAEDVSMLTEFMRDWYKESLRWTNAMMKAVAGESETNRELLQKWIDHWEPQAYEALKPLAEASVGIDGLNEARAELSARLKKFELQSRGVSA", "soluble on expression in E. coli": "soluble"},
      {"sequence": "MDPIKQEISEYFKDWMELYKKNAIDEMTYKGYEQTLKYLKTYMPNVLISEITASSYQRALNKFAETHAKASTKGFHTRVRASIQPLIEEGRLQKDFTTRAVVKGLEHHHHHH", "soluble on expression in E. coli": "soluble"},
      {"sequence": "MNNFILLEEQLIKKSQQKRRTSPSNFKVRFFVLTKASLAYFEDRHGKKRTLKGSIELSRIKCVEIVKSDISIPCHYKYPFQVVHDNYLLYVFAPDRESRQRWVLALKEETRNNNSLVPKYHPNFWMDGKWRCCSQLEKLATGCAQYDPTKNASKKPLPPTPEDNRRPLWEPEETVVIALYDYQTNDPQELALRRNEEYCLLDSSEIHWWRVQDRNGHEGYVPSSYLVEKSPNNLETYEWYNKSISRDKAEKLLLDTGKEGAFMVRDSRTAGTYTVSVFTKAVVSENNPCIKHYHIKETNDNPKRYYVAEKYVFDSIPLLINYHQHNGGGLVTRLRYPVCFGRQKAPVTAGLRYGKWVIDPSELTFVQEIGSGQFGLVHLGYWLNKDKVAIKTIREGAMSEEDFIEEAEVMMKLSHPKLVQLYGVCLEQAPICLVFEFMEHGCLSDYLRTQRGLFAAETLLGMCLDVCEGMAYLEEACVIHRDLAARNCLVGENQVIKVSDFGMTRFVLDDQYTSSTGTKFPVKWASPEVFSFSRYSSKSDVWSFGVLMWEVFSEGKIPYENRSNSEVVEDISTGFRLYKPRLASTHVYQIMNHCWKERPEDRPAFSRLLRQLAEIAESGL", "soluble on expression in E. coli": "soluble"},
      {"sequence": "MQASASNSSSYTVNASVLHVRAGSSTSHDIISRVYNGQSLNVIGEENGWYKININGKTGFVSGEFVSKNGTSNSNVSTTGGKNKVTADVLRVRTAPNTSSSVSGRVYEGQTLNVIGQENGWVKINHNGQVGYVSGEFVSGVSSNAGSSNSNTNNNNQESVKPASGNYTVNVSSLRVRTGPSTSHTTVGSVTKGQVVQVVGEVQDWFKINYAGQTAYVSKDYVTKGGSSDNVTQGNNQNNNQNNNVTVQTGGTYVVNATSLRVRTGPATYHSVIGGVLNGTTLNVIGSEGSWFKVNYQGKTGYVSSEFMKFVKGGTTTPEQPKQPEQPNQGAIGDYYINASALNVRSGEGTNYRIIGALPQGQKVQVISENSGWSKINYNGQTGYIGTRYLSKTPVGGAVDNNKPNNNQNNNQNNNNNTGNNSGNSSSILAYAKGMQGVPYVWGGTSANGVDCSGYIYHVFKKFGHNISRQSVAGYWGSLPQTSNPQPGDLIYFQNTYKSGPSHMGIYLGGGSFIQAGDKGVAIASLSNSYWKSHFLGYTKAPLEHHHHHH", "soluble on expression in E. coli": "soluble"},
      {"sequence": "MGSDKIHHHHHHMNQQTAAAQSTGVQAGTESSLLDEIVEKSKVAKSESEHARAKDLIGELVSQVLDGTVVVSDNLSATIDARVAELDRLISSQLSAVMHAAEFQRLESTWRGLDYLVKESNTGSTIKIKALHAPKRDLVRDFKNATEFDQSALFKKVYEEEFGTFGGSPFGVLVGDYEISRQPEDQYFIEQMSHVAAAAHAPFIASAAPELLGLESFADLGKPRDLGKVFDTVEYAKWKSFRDSEDSRYVGLTLPRFLGRLPFNPKDGAIAESFNFVEDVDGTDHDKYLWCNASWAFAARLTAAFDDFGWCAAIRGVEGGGLVEDLPTHTFKTDDGEIALKCPTEIAITDRREKELSDLGFIPLVHCKNSDYAAFFAAQSVQKPKKYSTDSANANAVLSAQLQYIFSVSRIAHYLKAMMRDKIGSFASAQNVETFLNRWISQYVLLDDDATQEQKAQFPLREASVQVSEIPGKPGAYRSVAFLRPHFQLDELSISLRLVADLPKPANS", "soluble on expression in E. coli": "not soluble"},
      {"sequence": "RRNLGGRLYLVTYGKAAALHLDPVEKKPLYHFHPGEGILSVGTVGCNLFCAFCQNWQISQFREFRVSPEGRLDRPIGEDWPPKRLVAEAEALGVRLLAYTYNEPAVWIEYAHDTARLAKARGMKNVFVTSGFETKEAWDYIRPHLDAANVDLKGFTEKFYREVCGARLKPVLESLGHLVASGVWVEVTTLLLEGYNDSDEEVRAMARFLKGLSPDIPWHLTAAHPDYRMLDLRSTRHATLVRAHAIAK", "soluble on expression in E. coli": "not soluble"},
      {"sequence": "MKILPLALFIIPFLAGCGANNTPPQTPIPGEKTSAKLRTLETGAAAIQSRPPVDAISTYLDGFHFYSGDKNGQMEAHHYVTVLNEDVMQAVIYDGNTKNARLMGVEYIISERLFKTLPPEEKKLWHSHQYEVKSGSLVAPGLPQVADKALMSKIVNTYGKTWHTWHTDRDKTLPMGIPALMMGFTGDGQLDPALLADRDRRLGIDTQAIKRERQDLPEHPVVKGANAWEQGEVIQLQRVQGSGEHGRGDTAHFGTSEQSRQ", "soluble on expression in E. coli": "not soluble"},
      {"sequence": "MFTKSHLALVIGAVLAAPAVANVQTDEHLVVEGREFGYKADTNSTAMRMEMTQLETPGQVAVIDETVIDEQRASTLGEVLRNDASVSAGGTSRNRERFSLRGFELSSSDGFLRDGRQHWSHYRQPIEL", "soluble on expression in E. coli": "not soluble"},
      {"sequence": "MAESYEEWKSFALKLDEETGAQEWKFDNSSPYFDAELISYRYTLLKRYRQQHRTLDLIYLLKEGLTYDIANIGHPMLFAATHVGTKKLIEDYIEEVSQSLAYIASSECITFQRKEKIEFFENCEKAYGQPALMFSGGATLGLFHTGVCKALIEQDLMPKVLSGSSAGAIMTGMLGISASEDIQNLLNGEQFFSDAFHFRKLRELIKGNGGIADVHYLKKFLIENLGDLTFEEAFKKSGLNINVAVAPYDATENPRIMNAIMTPNVLVWSAVLASCAVPVLFPPVRLTSKRYDGEHTPYMANTKWVDGSVRSDFPQERMARLYNLNYTIASQVNPHVVPFMQDDARRFRKDVLSWPERILRRQGKVLSMGLMDFTRQRLGAISPVRRLLDHGYGVVGQRYYGDVNIIAKYSLKHYAYTLQNPRPHLFKRLQREGERATWPKISSIETHARIGKTIQHCLEVLRFEEKKLEHHHHHH", "soluble on expression in E. coli": "not soluble"},
      {"sequence": "MALREMIIDESDDIESYSDQSLCLDKAKELLALIKLPTGLLPLKDMTEVGYNKTKGFVWMRMRSKIEHTFREIGRRVLYDTEITAFVEDRRMRRLTGVKSKELMIWVPVNDIFIKRKILRRSPLLIPPACHEHLKFQHFNVRVDKLKEKRSNQTSLM", "soluble on expression in E. coli": "not soluble"},
      {"sequence": "MGKKPVVIGVAGGSGSGKTSVARAIYDHFGDHSILVLEQDFYYKDQSHLPFEERLKTNYDHPLAFDNDLLIEHIHKLLRYEPIDKPVYDYTLHTRSSDVIRVEPKDVIIVEGILVLEDERLRNLMDIKVYVDTDPDIRIIRRLIRDMKERGRTFDSVIEQYLSVVRPMHNQFVEPTKRYADVIIPEGGQNVVAIDLMVAKIRTVLEQKAVL", "soluble on expression in E. coli": "not soluble"},
      {"sequence": "MGQKRMNKSNKLVIINRAIPGGGKTSLIKQIEELAKSLGHSISVHSTDEYFIQTDEEGIRHYVVDKKKLNEYHQNNQEAFKQALENRIDIVVCDNTNFESWQSKPYTDMAREFGYKILLIDFKNRHLETPMDYGWDVAQCIKKPRGIAKHYDYDFYLERVLVEPQDYEKQNRELSLKALEFLKYNFDFDVIFYSFGEQLMPILTRMLVSVSKSHRKRLENYGKDIKTLEHHHHHHLEHHHHHHLEHHHHHHLEHHHHHHLEHHHHHHLEHHHHHHLEHHHHHH", "soluble on expression in E. coli": "not soluble"},
      {"sequence": "MSLSNIETVPASIEMKPNPTITVFERSPDGGRGLARDMPVRWALEEVGQPYHVRRLSFEAMKEASHLAYQPFGQIPSYEQGDLILFESGAIVMHIAQHHSGLLPEDQLRRARTVAWMFAALNTIEPSILNFTTVWLFERNEPWHEARLARTKEQLLKRLDELSAWLGDREWLEGSFSAADILMICVLRRLESSGILKDYGNLLAYVERGKARPAFKRAFDAQLAVFTAASKNEGHHHHHH", "soluble on expression in E. coli": "soluble"},
      {"sequence": "GPGSMETAIQQDPVYVRLGVFRRLHGSNEVEWLMLRRINREMRPPDIPPISLKLPGKWTLLYERYKEAAIRTLWEETGITVDPTSVFPTAQLYQTSPKYYWRVPVRYFVAEVPHDVRVEGPQVVPTQYMRNWDVRLLRQSPDPIDRAWAQLADPITGCAWMKAPMIDELQKPLRGEKYMATRYTPPPYSNLQEVVGLGDGDQDTQNKETEAADPNA", "soluble on expression in E. coli": "not soluble"},
      {"sequence": "MSGKERNLPTHRISRFSKFASLATRVAGNVIAEGTKQIAKGNRPKAKDLLLTPQNIARLTDQLAHLRGAAMKLGQMLSMDAGDILEPELAEILARLRSNADPMPSKQLNSVMVNALGEQWKSAFLAFNFKPIASASIGQVHQAYSDAGDNLAVKVQYPGIRKSIDSDVDNVGTLLKIVGLIPESVDYKGLLEEAKKQLYDEANYEREAQFACRYHEALQGHPHFVVPKIYPEISSQSVLAMSFIQGTPIEKIANYDQETRDFVMHNLLELLFKELFEFKMVQTDPNFANYLYLEESKQIGLLDFGATREYSERFSSGYRQAFSSVVNDDEQGLNDALEQIGFFAQSIKPEQRMAILDLVKMACEPMLIDEAYDFKASGLAQKLREAGTILSMEQDYWHTPPADAIFLHRKIGGMYLLAARIGAKVNIRRLVQPYLKINSGLEHHHHHH", "soluble on expression in E. coli": "not soluble"}
    ]}
  ]
}
